{"source": "paper PMC5514143", "about": "“A Drug Carrier for Sustained Zero-Order Release of Peptide Therapeutics” (Scientific Reports, 2017)", "key": {"[1]": {"details": "administered via injection; cited from earlier work", "excerpt": "The key goal of a release system is to maintain the plasma drug concentration within the therapeutic window for a prolonged period of time. For zero-order release carriers, as the drug is released at constant rate, it will be possible to maintain the plasma drug concentration constant. This will avoid a plasma drug concentration which is too high to exert toxic effects, or too low to fail to exert therapeutic effects, and therefore lead to the best outcome. As expected, for rats with implanted PEG-sCT/TA films, the plasma concentration of PEG-sCT remains almost constant (Fig. 7A). When a 20 bi ..."}, "[2]": {"assay": "Circular dichroism of PEG-sCT released from the film", "type": "physicochemical", "details": "CD 190-260 nm, room temperature, 0.1 cm path cell; release media", "experimental": "UV-vis absorption spectra were recorded on a UV-1800 spectrophotometer (SHIMADZU, Japan). Fourier transform infrared (FTIR) spectra were measured on Bio-Rad FTS-6000 spectrometer. CD measurement was performed on a Biologic MOS-450 (Claix, France) at room temperature in a 0.1 cm path cell. The CD signals were recorded from 190 to 260 nm using a bandwidth of 4.0 nm and a scanning rate of 50 nm/min. SEM images were recorded on an FEI NanoSEM 430 Scanning Electron Microscope. Atomic force microscopy (AFM) images were acquired using a Benyuan CSPM5000s scanning probe microscope in tapping mode."}}}
{"substance": "PEGylated salmon calcitonin [PEG-sCT]", "values": [{"measurement": "half-life of PEG-sCT", "setting": "[1]", "result": "~ 83 min"}, {"measurement": "secondary structure of PEG-sCT released from the film (CD spectra vs native drug)", "setting": "[2]", "result": "remains unchanged"}]}
